From publication PMC6733591 come the findings set out here.

Broadly, the stoichiometry N is a count of units in the complex or per binding partner.

Series [1] has as its target Chaetomium thermophilum Las1 endoribonuclease (nuclease component of RNase PNK) (Chaetomium thermophilum). The series is described as follows: cryo-EM structure.
Series [2] deals with T1, ScRNase PNK (Las1-Grc3 complex) (Saccharomyces cerevisiae, UniProt P36146;Q07845 1-502;1-632).
T1 sequence 1: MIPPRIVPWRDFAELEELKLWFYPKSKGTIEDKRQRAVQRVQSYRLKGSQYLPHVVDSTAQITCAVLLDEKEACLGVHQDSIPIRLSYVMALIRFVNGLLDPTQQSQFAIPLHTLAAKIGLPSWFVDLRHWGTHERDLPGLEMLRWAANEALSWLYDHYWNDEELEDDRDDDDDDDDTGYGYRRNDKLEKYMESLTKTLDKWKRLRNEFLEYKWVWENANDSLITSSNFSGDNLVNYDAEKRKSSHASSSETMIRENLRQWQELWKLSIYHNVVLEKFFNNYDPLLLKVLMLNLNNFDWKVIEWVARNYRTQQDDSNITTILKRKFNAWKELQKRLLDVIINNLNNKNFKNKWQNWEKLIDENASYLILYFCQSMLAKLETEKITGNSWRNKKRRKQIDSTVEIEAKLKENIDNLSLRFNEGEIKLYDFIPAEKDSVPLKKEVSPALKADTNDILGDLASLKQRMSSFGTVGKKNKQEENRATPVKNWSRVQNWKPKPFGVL
T1 sequence 2: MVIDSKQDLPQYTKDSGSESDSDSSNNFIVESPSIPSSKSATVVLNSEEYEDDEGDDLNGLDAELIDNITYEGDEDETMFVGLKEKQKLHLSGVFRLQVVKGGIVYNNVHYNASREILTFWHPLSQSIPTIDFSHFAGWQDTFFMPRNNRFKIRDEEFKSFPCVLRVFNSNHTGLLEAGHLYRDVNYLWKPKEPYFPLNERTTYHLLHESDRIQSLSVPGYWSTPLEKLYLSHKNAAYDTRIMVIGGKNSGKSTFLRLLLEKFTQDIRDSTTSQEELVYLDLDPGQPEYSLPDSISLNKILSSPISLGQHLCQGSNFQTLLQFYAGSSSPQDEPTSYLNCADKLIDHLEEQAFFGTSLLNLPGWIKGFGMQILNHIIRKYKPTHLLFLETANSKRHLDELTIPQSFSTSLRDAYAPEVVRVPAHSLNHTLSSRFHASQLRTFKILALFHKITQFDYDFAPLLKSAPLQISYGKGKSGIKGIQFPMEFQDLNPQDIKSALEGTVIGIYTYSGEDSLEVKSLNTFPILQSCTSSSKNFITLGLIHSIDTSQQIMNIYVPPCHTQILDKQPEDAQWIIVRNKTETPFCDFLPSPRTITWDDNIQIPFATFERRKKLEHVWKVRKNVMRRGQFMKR
The series is described as follows: ITC. For orientation: In ITC the heat of successive injections is recorded.

In turn, “Chaetomium thermophilum Las1 endoribonuclease (nuclease component of RNase PNK) (enzyme)” registered a stoichiometry N in series [1] of 2.

B1: SS-RNA (ssRNA)
RNA: ACGUACGCGGAAUACUUCGAA
For the molecule B1, the binding result in series [2] is “binds”.

B2: SC-ITS2-cleaved-RNA (SC-ITS2-3-RNA annealed to SC-ITS2-5-RNA) (dsRNA)
RNA 1: GUCGUUUUA
RNA 2: GGUUUUACCAACUGCGGC
Regarding B2, the binding result in series [2] is “binds”.
